In patent US20130184211A1 (NEW YORK UNIVERSITY, published 2013):

T1: ectodomain of murine Klotho (A35 to K982) with C-terminal FLAG tag (murine, UniProt O35082 35-982)
T1 construct: range 35-982; Purified from culture media of HEK293 cells; also called Klotho ectodomain; not shown: C-terminal FLAG tag
T1 sequence (looked up): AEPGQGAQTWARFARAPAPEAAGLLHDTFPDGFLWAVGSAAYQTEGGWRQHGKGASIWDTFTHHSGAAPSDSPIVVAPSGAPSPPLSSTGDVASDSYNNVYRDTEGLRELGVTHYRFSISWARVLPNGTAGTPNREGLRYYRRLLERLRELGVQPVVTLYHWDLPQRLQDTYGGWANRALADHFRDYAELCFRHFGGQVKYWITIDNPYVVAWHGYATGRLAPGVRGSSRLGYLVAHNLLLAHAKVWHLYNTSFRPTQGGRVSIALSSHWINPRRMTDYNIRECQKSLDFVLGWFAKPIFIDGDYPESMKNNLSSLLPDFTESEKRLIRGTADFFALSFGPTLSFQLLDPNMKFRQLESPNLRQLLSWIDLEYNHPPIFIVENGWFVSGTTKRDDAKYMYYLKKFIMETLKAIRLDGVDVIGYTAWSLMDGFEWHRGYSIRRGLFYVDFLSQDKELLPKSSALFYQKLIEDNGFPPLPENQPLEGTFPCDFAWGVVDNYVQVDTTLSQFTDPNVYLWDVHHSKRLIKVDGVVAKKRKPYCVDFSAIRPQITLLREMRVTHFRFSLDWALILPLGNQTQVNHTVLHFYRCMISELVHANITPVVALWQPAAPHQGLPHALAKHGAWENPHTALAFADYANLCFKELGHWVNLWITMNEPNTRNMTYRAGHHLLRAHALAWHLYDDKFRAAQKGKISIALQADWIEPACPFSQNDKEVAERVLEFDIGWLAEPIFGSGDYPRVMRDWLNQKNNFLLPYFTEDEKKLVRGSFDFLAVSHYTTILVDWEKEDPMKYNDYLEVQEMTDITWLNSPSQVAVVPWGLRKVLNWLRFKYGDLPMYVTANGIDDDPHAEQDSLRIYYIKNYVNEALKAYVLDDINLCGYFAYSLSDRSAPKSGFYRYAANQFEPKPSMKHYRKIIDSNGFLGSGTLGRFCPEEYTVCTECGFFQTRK

T2: 1:1 binary complex of the ectodomains of FGFR1c and Klotho (human; murine, UniProt O35082 35-982)
T2 construct: range 35-982; also called FGFR1c-Klotho complex; binary FGFR1c-Klotho complex; not shown: C-terminal FLAG tag
T2 sequence 1: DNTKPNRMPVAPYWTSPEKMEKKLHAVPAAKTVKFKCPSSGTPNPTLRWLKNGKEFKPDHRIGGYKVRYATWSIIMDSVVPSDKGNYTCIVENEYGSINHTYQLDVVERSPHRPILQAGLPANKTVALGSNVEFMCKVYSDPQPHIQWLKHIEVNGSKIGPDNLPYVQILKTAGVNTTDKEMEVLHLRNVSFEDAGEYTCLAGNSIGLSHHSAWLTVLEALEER
T2 sequence 2: T1 sequence (looked up)

B1: ligand-binding domain of human FGFR1c (D142 to R365) (receptor)
chain: T2 sequence 1
notes: Expressed in E. coli; also called FGFR1c ectodomain
B2: human FGF23 (A28 to I251), FGF23^28-251, with R176Q and R179Q (ligand)
chain: ASPLLGSSWGGLIHLYTATARNSYHLQIHKNGHVDGAPHQTIYSALMIRSEDAGFVVITGVMSRRYLCMDFRGNIFGSHYFDPENCRFQHQTLENGYDVYHSPQYHFLVSLGRAKRAFLPGMNPPPYSQFLSRRNEIPLIHFNTPIPRQHTQSAEDDSERDPLNVLKPRARMTPAPASCSQELPSAEDNSPMASDPLGVVRGGRVNTHAGGTGPEGCRPFAKFI
notes: also called full-length FGF23

Legend:
[1] = target: T1, ectodomain of murine Klotho (A35 to …); experiment: SPR; Klotho ectodomain immobilized, increasing FGFR1c ectodomain injected; fitted saturation binding curve
Experimental: Proteins were immobilized by amine coupling on flow channels of research grade CMS chips (Biacore AB). Proteins were injected over a CMS chip at a flow rate of 50 μl min⁻¹, and at the end of each protein injection (180 s), HBS-EP buffer (50 μl min⁻¹) was flowed over the chip to monitor dissociation for 180 s. The chip surface was then regenerated by injecting 50 μl of 2.0 M NaCl in 10 mM sodium acetate, pH 4.5. […] For each protein injection over a Klotho chip, the nonspecific responses from the β-glucuronidase control flow channel were subtracted from the responses recorded for the Klotho flow channel. Similarly, for each protein injection over a FGF chip, the nonspecific responses from the FHF1B control flow channel were subtracted from the responses recorded for the FGF flow channel. Each set of experiments was repeated at least three times, and for each experiment, at least two protein injections were repeated two to five times to monitor chip performance and to verify reproducibility of the binding responses.
The size-exclusion data showing that Klotho and FGFR1c ectodomains form a stable binary complex (FIG. 1B) indicate that Klotho must harbor a high affinity binding site for FGFR1c. To further confirm this, surface plasmon resonance (SPR) spectroscopy was used to determine the dissociation constant of the FGFR1c-Klotho interaction. […]

[2] = target: T2, 1:1 binary complex of the ectodomains …; experiment: SPR competition; competitor FGF23^28-251 immobilized, fixed FGFR1c-Klotho complex
Experimental: Increasing concentrations of FGF23²⁸⁻²⁵¹ (0-50 nM) were mixed with a fixed concentration of 1:1 complex of the ectodomains of FGFR1c and Klotho (15 nM and 20 nM, respectively) in HBS-EP buffer, and the mixtures were passed over the FGF23 chip. In the other—reverse—assay, FGF23¹⁸⁰⁻²⁵¹ was immobilized on a chip (˜48.4 fmole/mm² of flow channel). Increasing concentrations of FGF23²⁸⁻²⁵¹ (0-50 nM) were mixed with a fixed concentration of 1:1 complex of the ectodomains of FGFR1c and Klotho (20 nM) in HBS-EP buffer, and the mixtures were passed over the chip. As a control, competition of FGF23 C-terminal tail peptide in solution with immobilized FGF23 C-terminal tail peptide for binding to the binary FGFR1c-Klotho complex was studied. Increasing concentrations of FGF23¹⁸⁰⁻²⁵¹ (0-400 nM) were mixed with a fixed concentration of 1:1 complex of the ectodomains of FGFR1c and Klotho (20 nM) in HBS-EP buffer, and the mixtures were passed over the FGF23¹⁸⁰⁻²⁵¹ chip.
To fully nail down that the C-terminal tail of FGF23 mediates FGF23 binding to the binary FGFR1c-Klotho complex, a fixed concentration of FGFR1c-Klotho was mixed with increasing concentrations of FGF23¹⁸⁰⁻²⁵¹, and the mixtures were passed over the FGF23 chip. Mixtures of FGF23²⁸⁻²⁵¹ with FGFR1c-Klotho were used as a control. […] Similar results were obtained using the “reverse” SPR assay format, where FGF23¹⁸⁰⁻²⁵¹ was immobilized on a chip and mixtures of a fixed concentration of FGFR1c-Klotho complex with increasing concentrations of FGF23²⁸⁻²⁵¹ were passed over the chip (FIG. 3E). Mixtures of FGF23¹⁸⁰⁻²⁵¹ with FGFR1c-Klotho were used as a control (FIG. 3F). To verify the specificity of the interaction between the FGF23 C-terminal tail and the FGFR1c-Klotho complex, the C-terminal tail peptide of FGF21 and FGFR1c-Klotho were mixed at molar ratios of 6:1 and 10:1, and the mixtures were injected over a FGF23 chip.

[3] = target: T2, 1:1 binary complex of the ectodomains …; experiment: SPR competition dose-response: FGF23^28-251 mixed with a fixed concentration of FGFR1c-Klotho, immobilized FGF23^28-251 as competitor; averaged data of two to three experiments
Source text: For each protein injection over a Klotho chip, the nonspecific responses from the β-glucuronidase control flow channel were subtracted from the responses recorded for the Klotho flow channel. Similarly, for each protein injection over a FGF chip, the nonspecific responses from the FHF1B control flow channel were subtracted from the responses recorded for the FGF flow channel. Each set of experiments was repeated at least three times, and for each experiment, at least two protein injections were repeated two to five times to monitor chip performance and to verify reproducibility of the binding responses.
To examine whether the C-terminal tail of FGF23 can compete with full-length FGF23 for binding to the binary FGFR1c-Klotho complex, two assay formats were employed. In one assay, FGF23²⁸⁻²⁵¹ was immobilized on a chip (˜16-53 fmole/mm² of flow channel). Increasing concentrations of FGF23¹⁸⁰⁻²⁵¹ (0-400 nM) were mixed with a fixed concentration of 1:1 complex of the ectodomains of FGFR1c and Klotho (10 nM, 15 nM and 20 nM, respectively) in HBS-EP buffer, and the mixtures were passed over the chip. As a control, competition of FGF23 in solution with immobilized FGF23 for binding to the binary FGFR1c-Klotho complex was studied. […]

Binder	Kd [1] [nM]	molar amount relative to FGFR1c-Klotho complex at 50% inhibition [2] [fold molar amount]	IC50 (read off the curve) [3] [nM]
B1	72		
B2		< 1	~20
